Values quoted from earlier work in PMC10967246.
Read-outs that look alike come from different tables or passages of the source.

Tests used:
[1] = biological target: GluTR (Arabidopsis thaliana) (UniProt P42804); test: MST
[2] = biological target: GluTR (Arabidopsis thaliana) (UniProt P42804)

Sequence of GluTR (Arabidopsis thaliana) (P42804 62-543): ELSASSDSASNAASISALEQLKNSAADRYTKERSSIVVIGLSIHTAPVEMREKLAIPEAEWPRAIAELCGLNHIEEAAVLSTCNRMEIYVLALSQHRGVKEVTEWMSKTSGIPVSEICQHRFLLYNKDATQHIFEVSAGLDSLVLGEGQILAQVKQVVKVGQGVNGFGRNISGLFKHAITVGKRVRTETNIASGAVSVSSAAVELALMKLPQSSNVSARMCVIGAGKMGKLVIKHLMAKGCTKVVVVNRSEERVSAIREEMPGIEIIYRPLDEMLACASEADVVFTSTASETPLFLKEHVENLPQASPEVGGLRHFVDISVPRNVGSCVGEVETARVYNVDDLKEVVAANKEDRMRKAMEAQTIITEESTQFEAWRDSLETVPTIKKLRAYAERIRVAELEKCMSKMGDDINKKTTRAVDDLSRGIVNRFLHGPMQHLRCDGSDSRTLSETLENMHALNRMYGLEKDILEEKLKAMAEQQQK
Sequence of GBP (Q9LU39 43-317): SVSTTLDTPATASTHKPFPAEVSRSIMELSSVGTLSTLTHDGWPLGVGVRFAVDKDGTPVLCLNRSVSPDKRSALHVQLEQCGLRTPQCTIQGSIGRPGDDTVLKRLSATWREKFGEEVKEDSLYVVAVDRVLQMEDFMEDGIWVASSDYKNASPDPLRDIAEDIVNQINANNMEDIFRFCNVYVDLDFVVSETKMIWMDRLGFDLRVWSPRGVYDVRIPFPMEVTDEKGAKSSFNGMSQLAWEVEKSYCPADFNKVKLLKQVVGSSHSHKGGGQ
Sequence of FLU TPR domain (Q940U6 203-316): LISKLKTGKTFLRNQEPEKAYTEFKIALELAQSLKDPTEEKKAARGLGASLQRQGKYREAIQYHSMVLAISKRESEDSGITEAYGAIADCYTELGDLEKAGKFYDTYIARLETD

Row | Substance | Kd [1] [nM] | Kd [2] [nM]
1 | GBP (from UniProt Q9LU39) | 42 | 
2 | FLU TPR domain (from UniProt Q940U6) |  | 475
